Results on 33 molecules are retold here after US20200283478A1 (Genentech, published 2020).

T2 sequence (prodomain, as listed by the source mutant limits assumed, chain 1 of 2): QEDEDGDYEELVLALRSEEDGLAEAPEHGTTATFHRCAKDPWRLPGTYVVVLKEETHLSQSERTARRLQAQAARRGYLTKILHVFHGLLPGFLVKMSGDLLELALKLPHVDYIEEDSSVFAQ
T2 sequence (chain, as listed by the source mutant limits assumed, chain 2 of 2): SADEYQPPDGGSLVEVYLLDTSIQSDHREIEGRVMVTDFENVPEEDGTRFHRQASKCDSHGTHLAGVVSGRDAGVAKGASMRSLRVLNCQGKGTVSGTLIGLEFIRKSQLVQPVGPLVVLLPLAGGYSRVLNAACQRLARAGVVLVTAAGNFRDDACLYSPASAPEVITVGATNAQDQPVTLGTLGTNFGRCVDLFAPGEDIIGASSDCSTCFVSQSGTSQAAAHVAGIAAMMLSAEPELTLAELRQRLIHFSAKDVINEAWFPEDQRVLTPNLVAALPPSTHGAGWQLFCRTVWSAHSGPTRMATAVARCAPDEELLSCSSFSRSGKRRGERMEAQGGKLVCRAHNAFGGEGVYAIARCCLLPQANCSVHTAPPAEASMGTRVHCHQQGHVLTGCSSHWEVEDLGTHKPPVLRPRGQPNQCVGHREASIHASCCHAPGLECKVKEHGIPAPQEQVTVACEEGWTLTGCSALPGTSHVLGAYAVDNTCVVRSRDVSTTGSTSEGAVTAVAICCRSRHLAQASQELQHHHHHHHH

The target in one experiment is T1, proprotein convertase subtilisin/kexin type 9 (PCSK9) (human, UniProt Q8NBP7 31-692).
T1 construct: His-tagged full-length PCSK9 in TR-FRET and SPR, biotinylated in phage ELISA; secreted protein is autoprocessed (prodomain plus catalytic/CRD chain starting at S153); also called rec.PCSK9; His-PCSK9
T1 sequence (Q8NBP7 other isoform, or with tags, fused parts or gaps limits assumed): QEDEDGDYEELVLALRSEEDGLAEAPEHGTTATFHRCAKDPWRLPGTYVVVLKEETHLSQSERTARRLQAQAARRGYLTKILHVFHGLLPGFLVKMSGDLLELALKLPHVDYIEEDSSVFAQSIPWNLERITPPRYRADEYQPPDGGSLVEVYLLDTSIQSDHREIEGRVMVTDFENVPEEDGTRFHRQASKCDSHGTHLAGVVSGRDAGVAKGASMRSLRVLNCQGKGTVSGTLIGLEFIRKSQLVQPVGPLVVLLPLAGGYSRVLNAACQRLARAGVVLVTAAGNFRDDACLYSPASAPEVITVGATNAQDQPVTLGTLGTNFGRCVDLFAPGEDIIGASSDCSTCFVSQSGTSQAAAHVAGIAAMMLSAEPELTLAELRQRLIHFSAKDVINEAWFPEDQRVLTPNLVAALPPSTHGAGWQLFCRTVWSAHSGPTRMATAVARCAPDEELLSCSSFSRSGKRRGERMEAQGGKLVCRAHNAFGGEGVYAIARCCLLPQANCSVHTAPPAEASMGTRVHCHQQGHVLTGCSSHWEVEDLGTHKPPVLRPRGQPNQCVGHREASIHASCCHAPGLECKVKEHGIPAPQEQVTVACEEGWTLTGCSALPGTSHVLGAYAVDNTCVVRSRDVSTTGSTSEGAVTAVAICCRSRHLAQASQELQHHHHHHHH
Description: phage spot ELISA. Background: ELISA stands for enzyme-linked immunosorbent assay.
Description: The binding signal of the same phage particle to NeutrAvidin was considered as non-specific binding (“noise”).
Consider TAFTSWEEYLDWVGSGCPFYDWRCSDFS [SEQ ID NO 328], for which the ELISA turned out to be 2.8 and the s/n ratio worked out at 25.
TAFTSWEEYLDWVGSGPHSYWLDRVQ [SEQ ID NO 332]: the ELISA was found to be 2.89 and the s/n ratio amounted to 25.3.
In the case of TAFTSWEEYLDWVGSGKLWNLGRV [SEQ ID NO 306], the ELISA stood at 2.79 and the s/n ratio turned out to be 28.2.
With TVFTSWEEYLDWV (also called phage displaying Pep2-8) [phage-displayed Pep2-8 (on p8)], the ELISA was 2.98 and the s/n ratio came out at 30.
As to TAFTSWEEYLDWV [phage-displayed Pep2-8V2A], the ELISA stood at 1.27 and the s/n ratio is 16.7.
TAFTSWEEYLDWVGSGNVRCYRDVPSCS [SEQ ID NO 329]: the ELISA came out at 2.66 and the s/n ratio came to 25.9.
TAFTSWEEYLDWVGSGKNNYAYLINMPRAPGI [SEQ ID NO 325]: the ELISA was found to be 2.54 and the s/n ratio came out at 24.7.
TAFTSWEEYLDWVGSGEHQFYSYRGVDVYR [SEQ ID NO 324]: the ELISA amounted to 2.55 and the s/n ratio amounted to 22.3.
For TAFTSWEEYLDWVGSGGPWNLNRV [SEQ ID NO 309], the ELISA stood at 2.68 and the s/n ratio came to 27.6.
In the case of TAFTSWEEYLDWVGSGNPTYWLTRIS [SEQ ID NO 331], the ELISA amounted to 2.98 and the s/n ratio stood at 23.1.
For TAFTSWEEYLDWVGSGEDVVCYGRVDYMPLCV [SEQ ID NO 330], the ELISA came to 2.67 and the s/n ratio stood at 25.2.
Regarding TAFTSWEEYLDWVGSGNCWSSLRGICENLG [SEQ ID NO 307], the ELISA stood at 2.81 and the s/n ratio came out at 21.7.
In the same order, the values of TAFTSWEEYLDWVGSGGCVKYRGSVSCQESKT [SEQ ID NO 323] are 2.85 and 18.
In the same order, the values of TAFTSWEEYLDWVGSGACLNHFVSGNMIRC [SEQ ID NO 327] are 2.87 and 26.1.

The next experiment has as its target T2, PCSK9Δhelix (human, Chemically biotinylated in the phage ELISAs; the site is not given.).
T2 construct: construct M1-Q692 with engineered TEV site, cleaved by TEV; also called His-PCSK9Δhelix; open groove PCSK9Δhelix
Description: phage spot ELISA.
With TAFTSWEEYLDWVGSGCPFYDWRCSDFS [SEQ ID NO 328], the ELISA worked out at 2.78 and the s/n ratio was 26.5.
Take TAFTSWEEYLDWVGSGPHSYWLDRVQ [SEQ ID NO 332]: the ELISA is 2.68 and the s/n ratio amounted to 24.6.
Consider TAFTSWEEYLDWVGSGKLWNLGRV [SEQ ID NO 306], for which the ELISA turned out to be 2.62 and the s/n ratio stood at 8.55.
In the same order, the values of TVFTSWEEYLDWV (also called phage displaying Pep2-8) [phage-displayed Pep2-8 (on p8)] are 2.1 and 21.8.
Take TAFTSWEEYLDWV [phage-displayed Pep2-8V2A]: the ELISA stood at 0.07 and the s/n ratio is 1.07.
Regarding TAFTSWEEYLDWVGSGNVRCYRDVPSCS [SEQ ID NO 329], the ELISA came out at 2.68 and the s/n ratio was 26.3.
TAFTSWEEYLDWVGSGKNNYAYLINMPRAPGI [SEQ ID NO 325]: the ELISA came to 2.54 and the s/n ratio turned out to be 29.1.
In the same order, the values of TAFTSWEEYLDWVGSGEHQFYSYRGVDVYR [SEQ ID NO 324] are 2.66 and 26.2.
In the case of TAFTSWEEYLDWVGSGGPWNLNRV [SEQ ID NO 309], the ELISA was determined as 2.7 and the s/n ratio is 29.3.
In the same order, the values of TAFTSWEEYLDWVGSGNPTYWLTRIS [SEQ ID NO 331] are 3.02 and 28.
For TAFTSWEEYLDWVGSGEDVVCYGRVDYMPLCV [SEQ ID NO 330], the ELISA was 2.7 and the s/n ratio was 24.8.
In the same order, the values of TAFTSWEEYLDWVGSGNCWSSLRGICENLG [SEQ ID NO 307] are 2.91 and 22.5.
In the case of TAFTSWEEYLDWVGSGGCVKYRGSVSCQESKT [SEQ ID NO 323], the ELISA is 2.73 and the s/n ratio was 24.2.
In the same order, the values of TAFTSWEEYLDWVGSGACLNHFVSGNMIRC [SEQ ID NO 327] are 1.38 and 8.17.

For the next experiment, the target named is T1, proprotein convertase subtilisin/kexin …. Description: phage spot ELISA. The source holds these as a separate data set.
Regarding TAFTSWEEYLDWVGSGGCGYRYMCDMINGL [SEQ ID NO 358], the ELISA is 2.92 and the s/n ratio was 32.8.
On to TAFTSWEEYLDWVGSGGDCYPHCRLV [SEQ ID NO 359], for which the ELISA worked out at 2.86 and the s/n ratio was 28.9.
For the molecule TAFTSWEEYLDWVGSGKMTHMKAD [SEQ ID NO 357], the ELISA was found to be 2.31 and the s/n ratio came out at 22.4.
In the same order, the values of TAFTSWEEYLDWVGSGCYPLCRVG [SEQ ID NO 355] are 3.06 and 16.2.
In the same order, the values of TAFTSWEEYLDWVGSGCYPLCRVL [SEQ ID NO 364] are 2.86 and 31.1.
Regarding TAFTSWEEYLDWVGSGRCESKGWANTCVSE [SEQ ID NO 362], the ELISA was 2.98 and the s/n ratio is 20.7.
With TAFTSWEEYLDWVGSGKCDSHYIRGVVACH [SEQ ID NO 356], the ELISA was 2.95 and the s/n ratio is 30.2.
Regarding TAFTSWEEYLDWVGSGSETGLGTYYG [SEQ ID NO 350], the ELISA was determined as 2.81 and the s/n ratio was 28.1.
TAFTSWEEYLDWVGSGDCLRYRVGSSCS [SEQ ID NO 360]: the ELISA is 3.04 and the s/n ratio amounted to 29.6.
For the molecule TAFTSWEEYLDWVGSGPTSGLTPS [SEQ ID NO 361], the ELISA was 2.66 and the s/n ratio came out at 27.5.
With TAFTSWEEYLDWVGSGVCSDHYIGGKEVRC [SEQ ID NO 348], the ELISA is 2.99 and the s/n ratio is 27.4.
As to TAFTSWEEYLDWVGSGSSTWHFVGGVRV [SEQ ID NO 354], the ELISA was 2.71 and the s/n ratio came to 24.4.
On to TAFTSWEEYLDWVGSGSPCRVGYTPC [SEQ ID NO 351], for which the ELISA was 2.92 and the s/n ratio was 27.7.
On to TAFTSWEEYLDWVGSGCLDRSGGCYTREGYLS [SEQ ID NO 353], for which the ELISA came out at 3.06 and the s/n ratio was determined as 29.
With TAFTSWEEYLDWVGSGRCGLAWCVVLVDQ [SEQ ID NO 365], the ELISA was 2.62 and the s/n ratio is 20.8.
On to TAFTSWEEYLDWVGSGNCARLYSHQRDYSQVC [SEQ ID NO 352], for which the ELISA came to 2.66 and the s/n ratio was 24.4.
In the same order, the values of TAFTSWEEYLDWVGSGCCSYGYEKCCNG [SEQ ID NO 349] are 2.87 and 28.6.
TAFTSWEEYLDWVGSGNMCYLRGKMDCNIV [SEQ ID NO 347]: the ELISA came out at 2.91 and the s/n ratio is 30.9.
As to TAFTSWEEYLDWVGSGQVTSLPQA [SEQ ID NO 363], the ELISA turned out to be 2.46 and the s/n ratio was 27.9.

For the next experiment, the target named is T2, PCSK9Δhelix. The experiment can be described thus: phage spot ELISA. This is another data set of the same source.
Turning to TAFTSWEEYLDWVGSGGCGYRYMCDMINGL [SEQ ID NO 358], the ELISA is 3.01 and the s/n ratio was 30.4.
In the same order, the values of TAFTSWEEYLDWVGSGGDCYPHCRLV [SEQ ID NO 359] are 2.85 and 28.5.
Take TAFTSWEEYLDWVGSGKMTHMKAD [SEQ ID NO 357]: the ELISA was determined as 0.106 and the s/n ratio was found to be 1.07.
On to TAFTSWEEYLDWVGSGCYPLCRVG [SEQ ID NO 355], for which the ELISA came to 3.05 and the s/n ratio worked out at 29.6.
In the case of TAFTSWEEYLDWVGSGCYPLCRVL [SEQ ID NO 364], the ELISA stood at 3.09 and the s/n ratio was found to be 31.9.
Regarding TAFTSWEEYLDWVGSGRCESKGWANTCVSE [SEQ ID NO 362], the ELISA is 2.56 and the s/n ratio was 15.8.
For the molecule TAFTSWEEYLDWVGSGKCDSHYIRGVVACH [SEQ ID NO 356], the ELISA turned out to be 3.03 and the s/n ratio came out at 30.9.
TAFTSWEEYLDWVGSGSETGLGTYYG [SEQ ID NO 350]: the ELISA turned out to be 2.78 and the s/n ratio stood at 25.5.
On to TAFTSWEEYLDWVGSGDCLRYRVGSSCS [SEQ ID NO 360], for which the ELISA turned out to be 2.87 and the s/n ratio was found to be 28.9.
On to TAFTSWEEYLDWVGSGPTSGLTPS [SEQ ID NO 361], for which the ELISA came to 0.127 and the s/n ratio turned out to be 1.3.
Take TAFTSWEEYLDWVGSGVCSDHYIGGKEVRC [SEQ ID NO 348]: the ELISA turned out to be 2.94 and the s/n ratio amounted to 15.4.
In the same order, the values of TAFTSWEEYLDWVGSGSSTWHFVGGVRV [SEQ ID NO 354] are 2.88 and 29.7.
Take TAFTSWEEYLDWVGSGSPCRVGYTPC [SEQ ID NO 351]: the ELISA was determined as 2.87 and the s/n ratio is 25.4.
Turning to TAFTSWEEYLDWVGSGCLDRSGGCYTREGYLS [SEQ ID NO 353], the ELISA was found to be 3.05 and the s/n ratio was found to be 30.4.
In the same order, the values of TAFTSWEEYLDWVGSGRCGLAWCVVLVDQ [SEQ ID NO 365] are 2.8 and 28.5.
Take TAFTSWEEYLDWVGSGNCARLYSHQRDYSQVC [SEQ ID NO 352]: the ELISA amounted to 2.64 and the s/n ratio came to 26.1.
Regarding TAFTSWEEYLDWVGSGCCSYGYEKCCNG [SEQ ID NO 349], the ELISA came to 2.88 and the s/n ratio is 27.2.
On to TAFTSWEEYLDWVGSGNMCYLRGKMDCNIV [SEQ ID NO 347], for which the ELISA was determined as 2.83 and the s/n ratio came to 28.6.
On to TAFTSWEEYLDWVGSGQVTSLPQA [SEQ ID NO 363], for which the ELISA came out at 0.11 and the s/n ratio was 1.21.
